Results taken from the supplement of paper PMC10567573.

B1: FUT8 (parent)
chain: NWRYATGGWETVFRPVSETCTDRS
B2: PCDHGA10 (parent)
chain: FGIEIEVTDINDNAPKFQAENLDV

Variants of: B1
Test: protein stability index of a GFP-peptide fusion (GPS, HEK-293T) (PSI 1-6); higher = more stable
Details: c terminus: a fixed tail appended
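Note: lentivirally expressed fusions sorted by FACS into six bins by GFP to DsRed ratio, PSI derived from sequencing read proportions per bin multiplied by bin number.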

Protein stability index: each site, then its substitutions
V12: R 2.08 | K 3.27 | M 2.48 | Y 2.73 | N 1.97 | W 1.26 | Q 2.56 | G 1.09 | S 1.97 | E 2.23 | C 2 | H 2.23 | I 2.57 | P 2.85 | T 1.69 | F 1.45 | A 2.46
F13: N 2.78 | L 2.28 | P 3.54 | Q 2.52 | T 2.28 | R 2.69 | Y 1.55 | A 3.91 | V 1.64 | W 3.09 | M 2.28 | E 3.2 | C 2.15 | I 1.66 | D 3.66 | K 3 | H 2.99
G7: P 2.19 | Q 2.49 | E 3.17 | K 2.39 | Y 2.12 | A 2.94 | L 1.89 | T 2.12 | R 1.75 | I 2.11 | M 1.81 | F 2.64 | W 1.59 | N 2.13 | S 1.97 | C 2.08 | H 2.22
R14: N 3.41 | T 3.45 | C 3.72 | D 2.4 | Y 2.1 | Q 1.77 | S 1.01 | K 1.7 | H 1.12 | F 1.29 | M 1.7 | W 1.6 | G 1.57 | E 1.83 | V 1.55 | P 2.69 | I 2.66
V16: Q 2.28 | K 2.73 | I 2.37 | N 1.78 | P 1.97 | M 2.47 | E 1.59 | Y 1.96 | T 1.61 | C 1.06 | F 1.23 | G 3.55 | A 1.66 | W 2.01 | D 1.81 | H 2.56 | L 1.57 | R 1.19
E10: I 3.19 | N 1.86 | F 3.97 | Y 2.52 | T 1.63 | D 1.8 | V 1.02 | M 1.73 | H 2.21 | S 1.86 | Q 1.2 | P 1.18 | R 2.49 | K 3.86
A5: C 1.05 | Y 2.94 | M 3.05 | H 3.69 | R 2.28 | P 1.48 | E 2.82 | F 2.43 | N 2.95 | W 3.33 | Q 2.91 | S 2.36 | K 3.36 | D 3.2 | T 2.33 | L 2.66 | I 1.39
W2: H 4 | G 3.72 | Y 2.74 | F 3.12 | Q 3.96 | E 3.94 | M 3.52 | V 3.26 | C 2.52 | D 3.72 | A 3.77 | N 3.55 | P 4.16 | S 3.25 | T 3.83
Y4: H 3.39 | D 3.13 | R 3.07 | P 3.85 | F 2.45 | A 3.42 | C 2.6 | Q 3.35 | N 3.32 | M 2.16 | T 3.27 | E 4.67 | S 3.66 | G 4.34 | V 3.42 | I 2.63 | W 2.98 | L 2.36
N1: R 2.23 | Q 4.02 | V 1.83 | D 1.7 | I 3.1 | A 1.16 | T 1.68 | H 2.74 | Y 2.88 | S 2.12 | G 2.12 | W 1.53 | C 2.35 | L 1.99 | E 2.44 | M 1.12 | K 2.4
G8: N 2.26 | C 1.55 | P 1.74 | Y 1.89 | I 1.48 | E 2.22 | H 2.43 | W 2.51 | D 2.9 | K 3.73 | L 1.82 | S 2.4 | T 2.47 | A 1.84 | M 2.01 | F 1.53 | Q 1.98 | R 1.41
T6: R 1.51 | H 1.28 | W 1.65 | Q 1.6 | K 1.1 | M 1.74 | E 2.25 | L 1.73 | N 1.48 | D 2.72 | S 1 | V 2.11 | P 2.44 | I 2.63 | Y 1.96
P15: K 2.03 | N 1.95 | L 2.1 | T 1.82 | R 1.68 | S 3.98 | I 2.35 | D 3.23 | G 2.05 | Q 2.43 | W 1.98 | Y 1.27
W9: V 2.31 | T 1.55 | H 2.73 | Q 2.03 | N 2.27 | E 2.79 | S 2.03 | Y 2.32 | L 2.29 | F 1.41 | I 2.22 | G 1.96 | R 1.88 | M 1.72 | K 2.06 | D 2.33 | P 2.95
S17: C 3.15 | A 2.34 | D 2.33
R3: C 2.76 | P 3.06 | M 2.44 | Q 3.15 | V 2.85 | H 2.85 | W 2.46 | I 2.32 | N 3.83 | L 2.69 | Y 1.76 | T 3.09 | F 1.97 | D 3.62 | G 3 | S 2.69 | A 3.58 | E 3.75
T11: V 2.12 | H 1.69 | R 3.69 | K 1.68 | E 2.86 | D 2.2 | C 1.78 | N 1.9 | Q 2.15 | P 2 | Y 4.5 | G 1.97 | L 2.12 | F 1.48 | I 3.25 | W 1.98

Variants of: B2
Test: as above
Details: c terminus: a fixed tail appended

Protein stability index: each site, then its substitutions
L22: M 2.84 | D 4.21 | P 3.36 | V 3.42 | K 4.02 | A 3.34 | G 3.97 | R 3.7 | E 4.39 | T 3.65 | H 3.4 | Q 3.71 | N 3.69 | I 3.02 | Y 2.83 | C 3.27 | W 2.53 | F 2.66 | S 4.17
V24: T 3.47 | K 3.52 | Q 3.62 | S 3.5 | R 3.71 | P 3.4 | D 4.22 | W 2.81 | N 3.28 | I 2.56 | H 3.6 | L 3.43 | E 3.46 | A 3.48 | G 3.7 | C 2.8 | F 2.64 | Y 2.93 | M 2.5
D23: S 2.06 | H 1.8 | Y 1.69 | C 1.82 | L 2.17 | A 2.3 | N 2.85 | Q 2.42 | F 1.55 | R 1.93 | V 2.56 | M 2.52 | I 1.93 | K 2.08 | T 1.95 | W 1.46 | P 2.32 | G 2.29 | E 2.59
N21: S 2.54 | P 2.6 | W 1.37 | L 2.13 | V 2.33 | K 3.25 | M 2.42 | T 2.89 | Q 2.8 | Y 1.73 | R 2.07
